From the supplement of paper PMC12042874 come the findings set out here.

± gives the uncertainty stated by the source.

The data set can be described thus: amyloid nucleation score (Sup35N fusion, yeast selection) (log enrichment); library NNK2; higher = more nucleation; inactive = no reads after selection. Summed up: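 Growth for 7 days at 30°C on medium lacking adenine and uracil followed a 24-hour induction with 100 μM copper sulfate of psi-negative yeast expressing peptides of 20 random codons fused to Sup35N. Input and output plasmid inserts were sequenced with Illumina, and sequences with under 100 input reads were excluded. Nucleation score is the DiMSum log enrichment of output over input reads, centred on the mode score of non-aggregating sequences.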
Substance GYGSSYLMQARSNRRISVFL gave an amyloid nucleation score of -0.758 ± 0.79.

Take FRDQGIFIHLWS: the amyloid nucleation score was 0.781 ± 0.44. The figure for WFIRIAIMARSFCIIALVPR is -1.22 ± 0.47; for QKYWCDFSNK it is “inactive”. The figure for IITIYLLAELNSVSVTSTSI is 5.138 ± 0.03.

For GYYRFLSSLLELTV, the amyloid nucleation score is -0.628 ± 0.76. The figure for RGEHRERCGDIGRYGMGRRA is 1.27 ± 0.14; for SDFIMTLSERVVGASLNSCD it is “inactive”. On to GETVHREYLAGWMALSSRRR, for which the amyloid nucleation score is 2.47 ± 0.094. The figure for IYMGISVCSICYV is 6.34 ± 0.071. The substance ESADQWAVTMVGRHFYLVLR displayed an amyloid nucleation score of 0.294 ± 1.1. The figure for RLALY is 1.45 ± 0.25; for WAKCRLTIMTKWSLLCGGLG it is 1.43 ± 0.34. As for ACRLVYNLGRVHLGNHSDIL, the amyloid nucleation score is -0.225 ± 1. In the case of FNGSYASILKTSNRDTFDAL, the amyloid nucleation score stood at 0.61 ± 0.15. The entry for VPSGSLD is “inactive”.

As to IVVSRMETSIKTCYFVMFHS, the amyloid nucleation score was -0.421 ± 0.38. The figure for LFIYLGDQSSNKVKPTHFRE is -0.497 ± 0.33; for WASIQVDRSLGCNIFWLLQ it is 3.73 ± 0.11; for WGDRLSVKFMCVDALGRVNL it is 0.019 ± 0.56.

For LDEPRM, the amyloid nucleation score came out at 0.16 ± 0.24. Take SYPFYVFSSNASSTAVIKLT: the amyloid nucleation score was 1.07 ± 0.19. The figure for KDRSQGKCLLGQQRQ is 0.782 ± 0.15; for SMQKG it is “inactive”.

In the case of FDALRIFVPVPYRRWSSR, the amyloid nucleation score was 1.52 ± 0.28. The figure for NDSFPRDNFVESWQACEILM is -0.78 ± 0.44. The figure for VEWEVMGVPDSKLDRGTGTV is 1.09 ± 0.53.

The substance TYLRSPLLLNAVSVNT registered an amyloid nucleation score of 0.082 ± 0.65.

Consider EVIANWLENGYYVSKTVFVD, for which the amyloid nucleation score was -0.026 ± 0.29. The figure for EEWTVNCC is 5.766 ± 0.046; for PYRLHMCCWEPLRSMLFMSF it is 1.03 ± 0.31. The figure for EIEEYWGV is -0.125 ± 0.63; for HSLLGPGPVPSYPQFSSPGR it is “inactive”. The figure for DGPWGSMDTRYNSS is 0.479 ± 0.74; for VMTYVEQVLGNVSVLIAIIT it is 0.015 ± 0.33. SCVINM showed an amyloid nucleation score of 1.55 ± 0.11.

As for INIIMFNVFINLEHIYYSVG, the amyloid nucleation score is 5.79 ± 0.066. In turn, LYIVDPSTASKAHTSSLPKS yielded an amyloid nucleation score of -0.324 ± 0.55. The figure for WLLILLDISTSDFLQCWIGM is -0.037 ± 0.65; for GHVDCWYGRVTALGQAKYE it is 0.344 ± 0.26; for QEELSWSS it is 0.131 ± 0.25. As for WGCNSNELSCRLYVVNYSGW, the amyloid nucleation score is -0.251 ± 0.56. The figure for EYSMHTWCRYKEDFSRGASG is 2.98 ± 0.096. The figure for SVLSFMRYLCGWQA is 6.513 ± 0.053; for RWAFHCKSRDVFNMRKL it is “inactive”; for AVNCH it is 0.748 ± 0.19. Consider RSMDPCRLLSELIRRT, for which the amyloid nucleation score is 0.938 ± 0.32. As to KSCGRLAAEYSPPRMACGHD, the amyloid nucleation score was 1.18 ± 0.41. The figure for LFRRGKILACIYA is 0.016 ± 1.1; for CIAYRDSTAYHNMTRGTAMV it is 3.72 ± 0.043; for ELCRCITFGLVCTFACYWVC it is 0.592 ± 0.2. The figure for YSMGAYTVSMGACA is -1.05 ± 1.1; for IFSLP it is -0.464 ± 0.5.

Turning to WDPQCGSLPFFLLNAEAFET, the amyloid nucleation score result was “inactive”. The figure for FRLFVKNKGRELICDLWVCT is -0.024 ± 1. The figure for STIQGIKNRSYRHSSANRVN is 0.333 ± 0.61.

CRYTASASDPDDTGLIRFNA gave an amyloid nucleation score of 3.75 ± 0.073.

As for MSWIGCYYYFNAQQHNSG, the amyloid nucleation score came out at 9.318 ± 0.052. As to GGTVEARSKGILSLSGW, the amyloid nucleation score entry was “inactive”. AHAPGPNEA: the amyloid nucleation score was 0.276 ± 0.8. The figure for WCLMQSFDGLSDME is 0.561 ± 0.62. The substance FKRRCVDYNFSVVILLH displayed an amyloid nucleation score of -2.03 ± 0.76. Turning to VLSYMFVYETMSEIFTFLVG, the amyloid nucleation score was -0.586 ± 0.49. The figure for SYVIP is -1.06 ± 1; for YMKTN it is -0.38 ± 0.32. The figure for INGSYSGYLERFGGMLRWMV is 0.753 ± 0.52; for SHFRLCGGVWSSGLMCHGCF it is 1.61 ± 0.55. The figure for SILIFTLTCSDRNW is -0.245 ± 0.76; for AVQAIITHQTLGKQVFFWFE it is 7.85 ± 0.076; for WVVHLSSGIRNF it is “inactive”.

Consider TRMNSVYKVEIRRLVKMVSW, for which the amyloid nucleation score turned out to be 0.242 ± 0.21. The figure for SIRLYHYKFALRERKV is 5.345 ± 0.053. Substance YVCRSGWDLVAKFGILRREE returned an amyloid nucleation score of 2.17 ± 0.2. The figure for QNCSHGSLCG is -0.022 ± 0.25. LIHLNNAMIEHCMFEVRSFG displayed an amyloid nucleation score of -0.016 ± 0.26. The figure for EIFAGICSSLAFKGHGRKSG is 6.29 ± 0.065; for MVDKNNAKINHSR it is “inactive”. The figure for NIFFNL is -0.13 ± 0.36. For SNSYGGDTQRY, the amyloid nucleation score was -0.517 ± 0.33. Consider PKVLGFFK, for which the amyloid nucleation score entry is “inactive”. For KHYAL, the amyloid nucleation score came to 0.169 ± 0.8. The figure for IYFMFVVYDSIHQE is 1.32 ± 0.2; for RKDSCCSVNRCDAMSFVRGI it is 0.073 ± 1.1. The entry for GARYTIWECF is “inactive”; for EWCQKGSAEIRASRCQ it is 0.58 ± 0.18. WSRKECG came in with an amyloid nucleation score of 0.408 ± 0.4. The figure for TRRGF is -0.357 ± 0.3; for SGKTMEVIYNEGSCFCGFLT it is 8.09 ± 0.081. SVRPRPD had an amyloid nucleation score of 0.617 ± 0.23. The figure for YNGLEVAYLF is 5.43 ± 0.062; for SMGLSC it is “inactive”; for MHHIFYVGNLSW it is “inactive”.

In turn, GEYGCHHVCLVQGLFGI came in with an amyloid nucleation score of -0.164 ± 0.42. The figure for TWSIYAHH is 0.952 ± 0.58; for LTRLFYPWK it is -0.14 ± 1.1.

Regarding YLKPLAFITSILHAMTRPWH, the amyloid nucleation score is -1.28 ± 0.75. The figure for LLRSEVGDLILPCVLERCRP is 1.13 ± 0.36. Consider LRRDL, for which the amyloid nucleation score is -0.408 ± 0.63.

With TYGGEV, the amyloid nucleation score was determined as 0.251 ± 0.31. The figure for TLHVVQFWKSCI is -0.343 ± 0.45.

LGFIHSTG: the amyloid nucleation score entry is “inactive”. The figure for GSRVALLNMGGK is -0.512 ± 0.79; for GRSEVRFMTMLMLCKKCACL it is 5.547 ± 0.034. DHSYRRYVVEGLFSVSQNGK gave an amyloid nucleation score of 0.21 ± 0.54. The figure for YSNSDTAMSLGARLAYGVL is 5.379 ± 0.05; for FFVKTLFEGSLDVSSNSTFF it is -0.304 ± 1.1. The entry for SLSGVV is “inactive”; for PLCLSDNYMTIQSSSILNAH it is -0.205 ± 0.41. The entry for FFYWL is “inactive”; for ANCATSVLCCSGCV it is 0.878 ± 0.14. Substance WWFTAIGCSVGRLGSFNR displayed an amyloid nucleation score of 2.06 ± 0.16. Turning to QTFDYW, the amyloid nucleation score came to 0.256 ± 0.74. PGHWLTNINISFSACKCLMM came in with an amyloid nucleation score of 8.227 ± 0.045. TMYIWRL gave an amyloid nucleation score of 6.58 ± 0.039. The figure for EYSTFPRRSDRSEIHFSINL is 3.47 ± 0.12; for RMCWELFT it is 0.022 ± 0.34.

Consider LSSLTLSMVA, for which the amyloid nucleation score came out at 0.561 ± 0.62. Consider YGFGHRGNMTAWLSMATKTF, for which the amyloid nucleation score was -0.109 ± 0.76. The figure for FVGCVNLRLCSSITTAWSSL is 8.346 ± 0.046; for FFTHTWLRRLKTLCVSFVPK it is -0.516 ± 0.45; for QKKLDLQ it is -0.673 ± 1. The substance GWSMCRVSRLTMLVSVVFFC displayed an amyloid nucleation score of 0.377 ± 0.26. The figure for WFIWNVENR is 7.15 ± 0.08. The figure for YRPAWMDWF is 1.78 ± 0.16; for MVSGRPTVYKTSSLQTASAN it is -0.14 ± 0.65. The figure for TYKTGDACVLVLPPHMADPR is -0.446 ± 1.1. In turn, EISAMVAL had an amyloid nucleation score of -1.06 ± 0.54. The figure for SATARKNILVSLGSVALFDR is -0.82 ± 0.54; for RAACFSAAHRTDWTWPDGDM it is 2.49 ± 0.19; for QSQSSNCYDFIRTNDRKSIC it is “inactive”. The figure for RIFVIVAGNYYFLAGFGYLA is -1.74 ± 0.64; for IVDSFTYTDVSTGSYLFG it is -1.42 ± 0.75; for VVLRVLISFSHSTIRLEGLV it is 2.84 ± 0.093. The figure for IVSCFTRVN is 5.26 ± 0.059; for AVEAYNMSNYLLRYISGSV it is -0.109 ± 0.65.

For HWYLRSV, the amyloid nucleation score came to 0.239 ± 0.43.

For VVRSRW, the amyloid nucleation score was found to be 0.372 ± 0.42. RLCAVITMVEVIYFSYYVWF yielded an amyloid nucleation score of 0.013 ± 0.55. The substance MTFNVFRNQALRPNCCKPNG returned an amyloid nucleation score of 3.09 ± 0.18. On to LHLFIVGRKWSGDESAFLYA, for which the amyloid nucleation score was found to be 0.154 ± 0.5. The figure for NSVDYSWCCNTSRIRMLVNR is 1.2 ± 0.1. The entry for VSSVVLCIIIRDGSMMFYYK is “inactive”. In turn, GNRVYGDYCFYTTMGWASW came in with an amyloid nucleation score of -0.379 ± 0.55.
